Results as given in patent US20140327158A1 (E3X BIO, published 2014).

Target: T1, HA-UbVS (HA-tagged ubiquitin vinyl sulfone activity probe) (UniProt P0CG48 1-75, C-terminal vinyl sulfone (VS) electrophilic trap)
T1 construct: Bought from Boston Biochem. Reacts covalently with the active site cysteine after specific recognition of Ub; also called Ub-vinyl sulfone
Test: HA-UbVS activity probe labeling, gel shift
From the text: Reactions were terminated by the addition of SDS loading buffer.

B1: Parkin RBR (residues 238-465) (enzyme, UniProt O60260 238-465, looked up)
chain: CITCTDVRSPVLVFQCNSRHVICLDCFHLYCVTRLNDRQFVHDPQLGYSLPCVAGCPNSLIKELHHFRILGEEQYNRYQQYGAEECVLQMGGVLCPRPGCGAGLLPEPDQRKVTCEGGNGLGCGFAFCRECKEAYHEGECSAVFEASGTTTQAYRVDERAAEQARWEAASKETIKKTTKPCPRCHVPVEKNGGCMHMKCPQPQCRLEWCWNCGCEWNRVCMGDHWFDV
notes: range 238-465; also called RBR domain of Parkin
  binding result: binds
